In this assay the target is MDM2 25-109 (Homo sapiens), Q00987. The experiment in a line: BLI competition. The note with it: modification not given.

As usually defined, the Kd is the equilibrium constant for the complex coming apart. Molecule AAFAAYWAALAAK [peptide 34] displayed a Kd of 4.7 nM.

For the origin of these results see paper PMC9814900.
